The nanobody polyreactivity screen of Harvey et al. (2022)

Assay: yeast display, Sf9 membrane polyspecificity reagent, FACS + sequencing; frameworks hold sequencing errors
In short: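 Sorting gates, low and high (top ~1%), were placed on anti-HA fluorescence to track expression and on streptavidin fluorescence to track reagent binding. A clone's polyreactivity label is taken from the gate it came out of. The reagent was 10% biotinylated, detergent-solubilized Sf9 membrane, applied for 1 hour at 4 °C to galactose-induced yeast display cells.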

Sequence | polyreactivity (PSR sort gate)
QVQLVESGGGLVQAGGSLRLSCAASGSTFTGYAMGWYRQAPGTERELVATINSGVSTYADSVKGRFTISRDNAKNTVYLQMNSLKPEDTAVYYCAADGLYYYQSGWIDAGYYTNGYWGQGTQVTVSS | low polyreactivity
QVQHGESGGGLLQAGGSLRLSCAASGFIFGVYEMGWYRQAPGKDTELVAAIMRSGGSTYYADSVKGRFTISRDIAKNTVYLQMNSLKPEDTAVYYCAAAYTGKYRKYDYWGQGTQVTVSS | high polyreactivity
QVQLVESGGGLVQAGGSLRLSCAASGFTFPVYVLGWYRQAPGKERELVAAISGGGGTSYADSVKGRFTISRDNAKNTVYLQMNSLKPEDTAVYYCAADYRTYVYVYGFRHFDYWGQGTQVTVSS | low polyreactivity
QVQLVESGGGLVQAGGSLRLSCAASGSTFSYYGMGWYRPAPGKERELVAAIDYSGDSTYYADSVKARFTISRDNAKNTVYLQMNSLKPEDTAVYYCAADDYPWNRYEYWGQGTQVTVSS | low polyreactivity
QVQLVESGGGLVQAGGSLRLSCAASGRTFTRYAMGWYRQAPGKERELVAAITIGDTTNYADSVKGRFTISRDNAKNTVYLQMNSLKPEDTAVYYCAAYVPRWSSYRRGGYWGQGTQVTVSS | high polyreactivity
QVQLVESGGGLVQAGGSLRLSCAASGITFVAYAMGWYRQAPGKERELVAAISGGGGSTYYADSVKGRFTISRDNAKNTVYLQMNSLKPEDTAVYYCAGVYTYPLGYYHYTYDYWGQGTQVTVSS | low polyreactivity
QVQLVESGGGLVQAGGSLRLSCAASGLTFGGYVMGWYRPAPGKERELVAAISWSGTRTYYADSVKGRFTISRDNAKNTVYLQMNSLKPEDTAVYYCAARVKSYNRGYYWGQGTQVTVSS | high polyreactivity
QVQLVDSGGGLVQAGGSLRLSCAASGRTFVPYAMGWYRQAPGKERELVAAISSGGDTNYADSVKGRFTISRDNAKNTVYLQMTSLKPEDTAVYYCNADSYYYVYGYDMGYWGQGTQVTVSS | low polyreactivity
QVQLVESGGGLVQAGGSLRLSCAASGFIFSRYTMGWYRQAPGKERELVAAISRRGGNTYYADSVKGRFTISRDNGKNTVYLLMNSLKPEDTAVYYFAADSSYFKDEYWGQGTQVTVSS | low polyreactivity
QVQLVESGGGLVQAGGSLRLSCAASGFTFQYNAMGWYRQAPGKERELVAAITWTGTSTYADSVKGRFTISRDNATNTVYLQMNSLKPEDTAVYYCADSYYAPRWFRYDYWGQGTQVTVSS | low polyreactivity
QVQLVESGGGLVQAGGSLRLSCAASGRIFYWYAMGWYRQAPGKEREFVAAITSSGGSTYYADSVKGRFTISRDNAKNTVDLQMNSLKPEDTAVYYCAARNPYYTSRGYWGQGTQVTVSS | high polyreactivity
QVQLVESGGGLVQAGGSLRLSCADSGRIFVHNAMGCYRQAPGKERELVAAISWRATRTYYADSVKGRFTISRDNAKNTVYLQMNSLKPEDTAVYYWAAVTPAYSTSSSSYDYWGQGTQVTVSS | high polyreactivity
QVQLVESGGGLVQAGGSLSLSCAASGSIFASYVMGWYRPAPGKEREMVAGIDTSGGSTFYADSVKGRFTISRDNAKNTVYLQMNSLKPEDTAVYYCAADTWYRGRWEFDYWGQGTQVTVSS | low polyreactivity
QVQRVESRGGLVKSGGSLRLSSASSGSTFRWYAMGWYRQAPGKERELVARINTRGGGTYYADSVKGRFTISRDNAKNTVYLQMNSLKPEDTAVYYCAAYSSWSGGLGGDYYWGQGTQVTVSS | low polyreactivity
QVQLVESGGGLVQAGGSLRLSCAASGRTFYTYAMGWYRQAPGKERELVAGIRTGGGSTYYADSVKGRFTISRDNAKYSVYLQMNSLKPDDTAVYYCAADTYDGYDYWGQGSQVTVSS | low polyreactivity
QVQLVESGGGLVQAVGSLRLSCAASGITFNLYAMGWYRQAPGKEREFVAGITASGSSTYDADSVKGRFTISRDNAKNTVYLQMNSLKPEDTAVYYCAARWHIYYFSYVTSYAYGYWGQGTQVTVSS | high polyreactivity

Sequence | polyreactivity (PSR sort gate)
QVQHVESGGGLVQAVGSLRLSCAASGRTFNNYAMGWYRQAPGKERELVAAISWRSDSTYYADSVMGRFTISRDNAKNTVYLQMNSLKPEDTAVYYCAASQYPLFWYDYWGQGTQVTVSS | low polyreactivity
QVQLVESGGGLVQAGGSLRLSCAASGSTFDVYAMGWYRQAPGKERELVATISWIGGSTYYADSVKGRFTISRDYAKKTVYLQMNSLKPEDTAVYYCAAESSPLEYDYWGQGTQVTVSS | low polyreactivity
QVQLVESGGGLVQAGVSLRLSFAASGSTFRGYAMGWYRQAPGKEREVVAAISSRGARTHYAHSVKGRFTISRDNAKNTVYLQMYSLKPVDTAVNYCNKRQVFVSTGEYEFDYCGQGTQVTVSS | low polyreactivity
QVQLVESGGGLVQAGGSLRLSCAASGRIFYHYAMGWYRQAPGKERELVAGINYRGGSTTYADSVKGRFTISRDNAKNTVYLQMNSLKPEDTAVYYCATLYPWKFPIRETGFDSWGQGTQVTVSS | low polyreactivity
QVQRVESAGRLVQAGGSLRLSCAPSGYTFYGYAMGWYRQAPGKESELVAAISGSGGSTYYADSVKGRFTMSRDNAKNTVYLQMNSLIPEDTAVYYCNKARYAIYRGDGYDYWGQGTEVTVSS | high polyreactivity
QVHLVESGGGLVQAGGSLRLSCAASGFTFPYYAMGWYRQAPGKERELVATIRSGGSTYYADSVKGRFTISRDNAKNSVYLQMNSLKPEDTAVYYCAKYQGLYSYEKYGYWGQGTQVTVSS | low polyreactivity
QVQLVESGGGLVQAGGSLRLSCAASGFTFADNAMGWYRQATGKERELVAAISWNGGRTFYADSVKGRFTISRDNAKNTVYLQMNSLKPEDSAVYYCNAVFIVRKYTGWSTGEGYWGQGTQVTVSS | high polyreactivity
QVQLVESGGGLVQAGGSLRLSCAASGRTFYSYAMGWYRQAPGKERDLVASITRAGSTYYADSVKGRFTISRDNAKNTVYLQMNSLKPEDTAVYYCAATYRSDRRYGSHYRVDYWGQGTQVTVSS | high polyreactivity
QVQLVDSGGGLVQAGGSLRLSCAASGSTFIYYAMGWYRQAPGKEREFVAAISYRGGSTYYADSVKGRFTISRDNAKNTVYLQMNSLKPEDTAVYYCAASYRKWNDYWGQGTQVTVSS | high polyreactivity
QVQLVESGGGIVQAGGSLRLSCAASGLTFRRNAMGWSRQAPGKERELVAAISSGGVRTYYADSVKGRFTISRDNAKNTVYLQMNSLKPEDTAVYYCAKDDLLVVRNVWFDYWGQGTQVTVSS | low polyreactivity
QVQLVESGGGLVQAGGSLRLSCAASGSIFIIYAMGWYRQAPGKERELVASITGRGDSTYYADSVKGRFTISRDNAKNTVYLQMNSLKPEDTAVYYCNAGVYVYRVPGKGYYWGQGTQVTVSS | low polyreactivity
QVHLVESGGGLVQAGGSLRLSCAASGSIVFLYAMGWYRQAPGKEWELVAAISGRGTSTDYADSVKGRFTISRDNAKNTVYLQLTSLKPEDTAVYFCAAKYNRPYQGWRVNHWGQGTQVTVSS | high polyreactivity
QVQLVESGGGLVQAGGSLRLSCAASGSIFYYYAMGWYRQAPGKERELVAAITRSGSSTYYADSVKGRFTISRDNAKNTVYLQMNSLKPEDTAVYYCAAKSKRGSRYDSWGQGTQVTVSS | high polyreactivity
QVQLVESGGGLVQAGGSLRLSCAASGSTYTLNAMGWYRQAPGKERELVADITSGGGGTYYADSVKGRFTISRDNAKNTVYLQMNSLKPEDTAVYYCAADDFHSLLGYWYGLFDYWGQGTQVTVSS | low polyreactivity
QVQLVESGGGLVQAGGSLRLSCAASGSIFDNNSMGWYRQAPGKERELVAAIDWSDGSTYYADSVKWRFTISRDNAKNTVYLQMNSLIPEDTSVYYCATVGKQKYDAKYGYWGQGTQVTVSS | high polyreactivity
